{"source": "patent US20210275684A1", "about": "(MONOJUL, published 2021)"}
{"target": "T1, recombinant human folate receptor beta (FRβ), residues 22 to 236, with ADPG at the N-terminus and five … (human, UniProt P14207 22-236)", "T1 construct": "also called hFRβ; recombinant FRβ", "T1 sequence (P14207 other isoform, or with tags, fused parts or gaps)": "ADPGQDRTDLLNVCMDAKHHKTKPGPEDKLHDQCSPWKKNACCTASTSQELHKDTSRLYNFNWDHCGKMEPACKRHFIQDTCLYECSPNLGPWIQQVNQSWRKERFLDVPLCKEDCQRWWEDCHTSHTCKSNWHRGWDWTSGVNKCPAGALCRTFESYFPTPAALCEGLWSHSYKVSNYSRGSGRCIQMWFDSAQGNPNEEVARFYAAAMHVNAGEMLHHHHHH", "assay": "combinatorial library screen: ELISA on coated antigen, then affinity (dissociation rate) ranking"}
{"binder": "Clone G (affinity matured antibody from the combinatorial library) (Fab, V domains shown, Format in the screen not expressly stated) VH: EVQLVQSGAEVKKPGASVKVSCKASGYTFTIYAMHWVRQAPGQRLEWMGWINAGNGNTKYSQKFQGRVTITRDTSASTAYMELSSLRSEDTAVYYCARDISYGSFDYWGQGTLVTVSS VL: SSELTQDPAVSVALGQTVRITCQGDSLRSNYANWYQQKPGQAPVLVIYGQFNLPSGIPDRFSGSSSGNTASLTITGAQAADEADYYCDSRVSTGIHVVFGGGTKLTVLG", "binding result": "binds"}
{"binder": "Clone D (affinity matured antibody from the combinatorial library) (Fab, V domains shown, Format in the screen not expressly stated) VH: EVQLVQSGAEVKKPGASVKVSCKASGYTFTYYAMHWVRQAPGQRLEWMGWINAGNGNTKYSQKFQGRVTITRDTSASTAYMELSSLRSEDTAVYYCARDISYGSFDYWGQGTLVTVSS VL: SSELTQDPAVSVALGQTVRITCQGDSLRSNYANWYQQKPGQAPVLVIYGQFNLPSGIPDRFSGSSSGNTASLTITGAQAADEADYYCDSRVSTGIHVVFGGGTKLTVLG", "binding result": "binds"}
{"binder": "Clone M (affinity matured antibody from the combinatorial library) (Fab, V domains shown, Format in the screen not expressly stated) VH: EVQLVQSGAEVKKPGASVKVSCKASGYTFTIYAMHWVRQAPGQRLEWMGWINAGNGNTKYSQKFQGRVTITRDTSASTAYMELSSLRSEDTAVYYCARDISYGSFDYWGQGTLVTVSS VL: SSELTQDPAVSVALGQTVRITCQGDSLRSNYANWYQQKPGQAPVLVIYGQFNLPSGIPDRFSGSSSGNTASLTITGAQAADEADYYCDSRVSTGNHVVFGGGTKLTVLG", "binding result": "binds"}
{"binder": "Clone P (affinity matured antibody from the combinatorial library) (Fab, V domains shown, Format in the screen not expressly stated) VH: EVQLVQSGAEVKKPGASVKVSCKASGYTFTIYAMHWVRQAPGQRLEWMGWINAGNGFTKYSQKFQGRVTITRDTSASTAYMELSSLRSEDTAVYYCARDISYGSFDYWGQGTLVTVSS VL: SSELTQDPAVSVALGQTVRITCQGDSLRSNYANWYQQKPGQAPVLVIYGQNNRPSGIPDRFSGSSSGNTASLTITGAQAADEADYYCDSRVSTGNHVVFGGGTKLTVLG", "binding result": "binds"}
{"binder": "Clone O (affinity matured antibody from the combinatorial library) (Fab, V domains shown, Format in the screen not expressly stated) VH: EVQLVQSGAEVKKPGASVKVSCKASGYTFTYYAMHWVRQAPGQRLEWMGWINAGNGNTKYSQKFQGRVTITRDTSASTAYMELSSLRSEDTAVYYCARDISYGSFDYWGQGTLVTVSS VL: SSELTQDPAVSVALGQTVRITCQGDSLRSNYANWYQQKPGQAPVLVIYGQNNLPSGIPDRFSGSSSGNTASLTITGAQAADEADYYCDSRVSTGNHVVFGGGTKLTVLG", "binding result": "binds"}
{"binder": "Clone H (affinity matured antibody from the combinatorial library) (Fab, V domains shown, Format in the screen not expressly stated) VH: EVQLVQSGAEVKKPGASVKVSCKASGYTFTIYAMHWVRQAPGQRLEWMGWINAGNGNTKYSQKFQGRVTITRDTSASTAYMELSSLRSEDTAVYYCARDISYGSFDYWGQGTLVTVSS VL: SSELTQDPAVSVALGQTVRITCQGDSLRSNYANWYQQKPGQAPVLVIYGQFNRPSGIPDRFSGSSSGNTASLTITGAQAADEADYYCDSRVSTGIHVVFGGGTKLTVLG", "binding result": "binds"}
{"binder": "Clone A (affinity matured antibody from the combinatorial library) (Fab, V domains shown, Format in the screen not expressly stated) VH: EVQLVQSGAEVKKPGASVKVSCKASGYTFTYYAMHWVRQAPGQRLEWMGWINAGNGFTKYSQKFQGRVTITRDTSASTAYMELSSLRSEDTAVYYCARDISYGSFDYWGQGTLVTVSS VL: SSELTQDPAVSVALGQTVRITCQGDSLRSNYANWYQQKPGQAPVLVIYGQFNLPSGIPDRFSGSSSGNTASLTITGAQAADEADYYCDSRVSTGIHVVFGGGTKLTVLG", "binding result": "binds"}
{"binder": "Clone F (affinity matured antibody from the combinatorial library) (Fab, V domains shown, Format in the screen not expressly stated) VH: EVQLVQSGAEVKKPGASVKVSCKASGYTFTYYAMHWVRQAPGQRLEWMGWINAGNGNTKYSQKFQGRVTITRDTSASTAYMELSSLRSEDTAVYYCARDISYGSFDYWGQGTLVTVSS VL: SSELTQDPAVSVALGQTVRITCQGDSLRSNYANWYQQKPGQAPVLVIYGQFNLPSGIPDRFSGSSSGNTASLTITGAQAADEADYYCDSRVSTGNHVVFGGGTKLTVLG", "binding result": "binds"}
{"binder": "Clone I (affinity matured antibody from the combinatorial library) (Fab, V domains shown, Format in the screen not expressly stated) VH: EVQLVQSGAEVKKPGASVKVSCKASGYTFTIYAMHWVRQAPGQRLEWMGWINAGNGNTKYSQKFQGRVTITRDTSASTAYMELSSLRSEDTAVYYCARDISYGSFDYWGQGTLVTVSS VL: SSELTQDPAVSVALGQTVRITCQGDSLRSNYANWYQQKPGQAPVLVIYGQNNLPSGIPDRFSGSSSGNTASLTITGAQAADEADYYCDSRVSTGIHVVFGGGTKLTVLG", "binding result": "binds"}
{"binder": "Clone J (affinity matured antibody from the combinatorial library) (Fab, V domains shown, Format in the screen not expressly stated) VH: EVQLVQSGAEVKKPGASVKVSCKASGYTFTYYAMHWVRQAPGQRLEWMGWINAGNGFTKYSQKFQGRVTITRDTSASTAYMELSSLRSEDTAVYYCARDISYGSFDYWGQGTLVTVSS VL: SSELTQDPAVSVALGQTVRITCQGDSLRSNYANWYQQKPGQAPVLVIYGQNNRPSGIPDRFSGSSSGNTASLTITGAQAADEADYYCDSRVSTGIHVVFGGGTKLTVLG", "binding result": "binds"}
{"binder": "Clone C (affinity matured antibody from the combinatorial library) (Fab, V domains shown, Format in the screen not expressly stated) VH: EVQLVQSGAEVKKPGASVKVSCKASGYTFTYYAMHWVRQAPGQRLEWMGWINAGNGFTKYSQKFQGRVTITRDTSASTAYMELSSLRSEDTAVYYCARDISYGSFDYWGQGTLVTVSS VL: SSELTQDPAVSVALGQTVRITCQGDSLRSNYANWYQQKPGQAPVLVIYGQFNRPSGIPDRFSGSSSGNTASLTITGAQAADEADYYCDSRVSTGIHVVFGGGTKLTVLG", "binding result": "binds"}
{"binder": "Clone L (affinity matured antibody from the combinatorial library) (Fab, V domains shown, Format in the screen not expressly stated) VH: EVQLVQSGAEVKKPGASVKVSCKASGYTFTIYAMHWVRQAPGQRLEWMGWINAGNGNTKYSQKFQGRVTITRDTSASTAYMELSSLRSEDTAVYYCARDISYGSFDYWGQGTLVTVSS VL: SSELTQDPAVSVALGQTVRITCQGDSLRSNYANWYQQKPGQAPVLVIYGQFNRPSGIPDRFSGSSSGNTASLTITGAQAADEADYYCDSRVSTGNHVVFGGGTKLTVLG", "binding result": "binds"}
{"binder": "Clone B (affinity matured antibody from the combinatorial library) (Fab, V domains shown, A16V was placed on the heavy chain; Format in the screen not expressly stated) VH: EVQLVQSGAEVKKPGVSVKVSCKASGYTFTYYAMHWVRQAPGQRLEWMGWINAGNGFTKYSQKFQGRVTITRDTSASTAYMELSSLRSEDTAVYYCARDISYGSFDYWGQGTLVTVSS VL: SSELTQDPAVSVALGQTVRITCQGDSLRSNYANWYQQKPGQAPVLVIYGQFNLPSGIPDRFSGSSSGNTASLTITGAQAADEADYYCDSRVSTGIHVVFGGGTKLTVLG", "binding result": "binds"}
{"target": "T1, recombinant human folate receptor beta …", "assay": "SPR, Biacore T200, antibody captured through Fc, hFRβ as analyte", "procedure": "(§1) To begin the analysis of the affinity matured antibodies, AS04498 was selected for further analysis. Antibody affinity to antigen protein was determined using a Surface Plasmon Resonance (SPR) biosensor, Biacore T200 (GE Healthcare). Antibody was immobilized on the sensor chip through Fc capture method. Antigen protein was used as the analyte. The data of dissociation (kd) and association (k0) rate constants were obtained using Biacore T200 evaluation software. The equilibrium dissociation constants (KD) were calculated from the ratio of kd over k0.", "units": {"Kd": "nM", "koff": "s⁻¹", "kon": "M⁻¹ s⁻¹"}}
{"binder": "AS04498 antibody (affinity matured, full length IgG) (antibody, V domains shown, also called ASO4498; AM) VH: EVQLVQSGAEVKKPGASVKVSCKASGYTFTYYAMHWVRQAPGQRLEWMGWINAGNGNTKYSQKFQGRVTITRDTSASTAYMELSSLRSEDTAVYYCARDISYGSFDYWGQGTLVTVSS VL: SSELTQDPAVSVALGQTVRITCQGDSLRSNYANWYQQKPGQAPVLVIYGQFNRPSGIPDRFSGSSSGNTASLTITGAQAADEADYYCDSRVSTGIHVVFGGGTKLTVLG", "Kd": 2.5, "koff": 0.000144, "kon": 57700}
{"binder": "M909 IgG (parent monoclonal antibody m909, full length IgG) (antibody, V domains shown, not shown: a dimerising Fc or GST, also called m909 antibody) VH: EVQLVQSGAEVKKPGASVKVSCKASGYTFTSYAMHWVRQAPGQRLEWMGWINAGNGNTKYSQKFQGRVTITRDTSASTAYMELSSLRSEDTAVYYCARDISYGSFDYWGQGTLVTVSS VL: SSELTQDPAVSVALGQTVRITCQGDSLRSNYANWYQQKPGQAPVLVIYGQNNRPSGIPDRFSGSSSGNTASLTITGAQAADEADYYCDSRVSTGNHVVFGGGTKLTVLG", "Kd": 92.4, "koff": 0.00592, "kon": 64100}
{"target": "T1, recombinant human folate receptor beta …", "assay": "SPR, Biacore T200; affinity relative to the chimeric IgG control", "procedure": "as §1", "units": {"Fold Increase": "fold"}}
{"binder": "AS04498 antibody (affinity matured, full length IgG) (antibody, V domains shown, also called ASO4498; AM) VH: EVQLVQSGAEVKKPGASVKVSCKASGYTFTYYAMHWVRQAPGQRLEWMGWINAGNGNTKYSQKFQGRVTITRDTSASTAYMELSSLRSEDTAVYYCARDISYGSFDYWGQGTLVTVSS VL: SSELTQDPAVSVALGQTVRITCQGDSLRSNYANWYQQKPGQAPVLVIYGQFNRPSGIPDRFSGSSSGNTASLTITGAQAADEADYYCDSRVSTGIHVVFGGGTKLTVLG", "Fold Increase": 38}
{"target": "T1, recombinant human folate receptor beta …", "assay": "affinity measurement of full length IgG on recombinant FRβ (FIGS. 6A-6C, summarised in Table 5); reference: Chimeric IgG. The sentence says 'higher' of the KD, but the KD is lower, so the affinity is higher", "procedure": "as §1", "units": {"fold change of KD against the chimeric IgG control": "fold"}}
{"binder": "AS04498 antibody (affinity matured, full length IgG) (antibody, V domains shown, also called ASO4498; AM) VH: EVQLVQSGAEVKKPGASVKVSCKASGYTFTYYAMHWVRQAPGQRLEWMGWINAGNGNTKYSQKFQGRVTITRDTSASTAYMELSSLRSEDTAVYYCARDISYGSFDYWGQGTLVTVSS VL: SSELTQDPAVSVALGQTVRITCQGDSLRSNYANWYQQKPGQAPVLVIYGQFNRPSGIPDRFSGSSSGNTASLTITGAQAADEADYYCDSRVSTGIHVVFGGGTKLTVLG", "fold change of KD against the chimeric IgG control": 38}
